{"source": "paper PMC3458246", "about": "(Scientific Reports, 2012)", "proteins": {"B1": {"name": "Death Associated Protein Kinase 1 (DAPK1) K42W, HA tagged, kinase dead (enzyme, human, UniProt P53355 1-1430, looked up)", "chain": "MTVFRQENVDDYYDTGEELGSGQFAVVKKCREKSTGLQYAAWFIKKRRTKSSRRGVSREDIEREVSILKEIQHPNVITLHEVYENKTDVILILELVAGGELFDFLAEKESLTEEEATEFLKQILNGVYYLHSLQIAHFDLKPENIMLLDRNVPKPRIKIIDFGLAHKIDFGNEFKNIFGTPEFVAPEIVNYEPLGLEADMWSIGVITYILLSGASPFLGDTKQETLANVSAVNYEFEDEYFSNTSALAKDFIRRLLVKDPKKRMTIQDSLQHPWIKPKDTQQALSRKASAVNMEKFKKFAARKKWKQSVRLISLCQRLSRSFLSRSNMSVARSDDTLDEEDSFVMKAIIHAINDDNVPGLQHLLGSLSNYDVNQPNKHGTPPLLIAAGCGNIQILQLLIKRGSRIDVQDKGGSNAVYWAARHGHVDTLKFLSENKCPLDVKDKSGEMALHVAARYGHADVAQLLCSFGSNPNIQDKEEETPLHCAAWHGYYSVAKALCEAGCNVNIKNREGETPLLTASARGYHDIVECLAEHGADLNACDKDGHIALHLAVRRCQMEVIKTLLSQGCFVDYQDRHGNTPLHVACKDGNMPIVVALCEANCNLDISNKYGRTPLHLAANNGILDVVRYLCLMGASVEALTTDGKTAEDLARSEQHEHVAGLLARLRKDTHRGLFIQQLRPTQNLQPRIKLKLFGHSGSGKTTLVESLKCGLLRSFFRRRRPRLSSTNSSRFPPSPLASKPTVSVSINNLYPGCENVSVRSRSMMFEPGLTKGMLEVFVAPTHHPHCSADDQSTKAIDIQNAYLNGVGDFSVWEFSGNPVYFCCYDYFAANDPTSIHVVVFSLEEPYEIQLNQVIFWLSFLKSLVPVEEPIAFGGKLKNPLQVVLVATHADIMNVPRPAGGEFGYDKDTSLLKEIRNRFGNDLHISNKLFVLDAGASGSKDMKVLRNHLQEIRSQIVSVCPPMTHLCEKIISTLPSWRKLNGPNQLMSLQQFVYDVQDQLNPLASEEDLRRIAQQLHSTGEINIMQSETVQDVLLLDPRWLCTNVLGKLLSVETPRALHHYRGRYTVEDIQRLVPDSDVEELLQILDAMDICARDLSSGTMVDVPALIKTDNLHRSWADEEDEVMVYGGVRIVPVEHLTPFPCGIFHKVQVNLCRWIHQQSTEGDADIRLWVNGCKLANRGAELLVLLVNHGQGIEVQVRGLETEKIKCCLLLDSVCSTIENVMATTLPGLLTVKHYLSPQQLREHHEPVMIYQPRDFFRAQTLKETSLTNTMGGYKESFSSIMCFGCHDVYSQASLGMDIHASDLNLLTRRKLSRLLDPPDPLGKDWCLLAMNLGLPDLVAKYNTSNGAPKDFLPSPLHALLREWTTYPESTVGTLMSKLRELGRRDAADFLLKASSVFKINLDGNGQEAYASSCNSGTSYNSISSVVSR"}}, "biological_target": "the molecule itself", "assay": "SEC"}
{"protein": "B1", "values": [{"measurement": "stoichiometry N", "result": 2}]}
